One data set has as its target BSA (Bos taurus, UniProt P02769). The data set can be described thus: ELISA antigen binding of BsAbs, control protein. The procedure: (§1) The anti-PEG binding specificity of BsAbs was measured by adding graded concentrations of PEG2×TAG72, PEG2×DNS, hCC49 scFv, h6.3Fab×EGFR or h6.3Fab×CD19 in 50 μL 2% skim milk to the mucin, BSA-PEG5000, NH2-PEG3k-NH2 or BSA coated plates at RT for 1 h. The plates were washed with PBS-T (PBS containing 0.05% Tween-20) three times. Rabbit anti-6×His (2 μg/mL) supplemented with HRP-conjugated goat anti-rabbit (2 μg/mL) or HRP-conjugated goat Ig anti human IgG Fab (2 μg/mL) (Jackson ImmunoResearch Laboratories, West Grove, Pa.) in 50 μL dilution buffer were added for 1 h at room temperature. The plates were washed with PBS-T (PBS containing 0.05% Tween-20) three times and with PBS two times. Bound peroxidase activity was measured by adding 150 μL/well ABTS substrate solution (BioLegend, San Diego, Calif.) for 30 min at room temperature. The absorbance (405 nm) of wells was measured in a microplate reader (Molecular Device, Menlo Park, Calif.).
Binding of the BsAbs was detected by ELISA. Microtiter plates were first coated with antigens and then PEG2×TAG72, PEG2×DNS BsAbs or hCC49 (anti-TAG72) single chain antibody was added. After the plates were extensively washed to remove unbound antibodies, the remaining bound antibodies in each well were detected with HRP-conjugated secondary antibody. […] In sum, PEG2×TAG72 anti-PEG (hE11) BsAb of example 1.2 can bind both PEG and tumor antigens. […]

Data set [1] can be described thus: ELISA PEG binding of h6.3 BsAbs. The conditions noted are these: FIG. 14A. The procedure: as §1, with “The anti-PEG binding specificity of BsAbs was measured by adding graded concentrations of PEG2×TAG72, PEG2×DNS, hCC49 scFv, h6.3Fab×EGFR or h6.3Fab×CD19 in 50 μL 2% skim milk to the mucin, BSA-PEG5000, NH2-PEG3k-NH2 or BSA coated plates at RT for 1 h.” left out
The PEG-binding kinetics of h6-3Fab×EGFR and h6.3Fab×CD19 BsAbs were verified by Microscale Thermophoresis (MST) (FIGS. 14D and 14E).

Another data set relates to A431 cells (EGFR+). Put plainly: Flow cytometry: BsAb-directed PEG-liposome Texas Red / PEG-Qdot655 on cells. The conditions noted are these: PEG-liposome Texas Red and PEG-Qdot655, 10 μg/mL BsAb. It is filed as cell-based, human. The procedure:
PEG2×TAG72 or control PEG2×DNS BsAbs (10 μg/mL) were incubated with A-375 (TAG72−), MCF-7 (TAG72+), Jurkat (TAG72+) or OVCAR-3 (TAG72+) cells at 4° C. for 30 min followed by FITC-labeled goat anti-human immunoglobulin second antibody (2 μg/mL) (Jackson ImmunoResearch Laboratories, West Grove, Pa.) or FITC-labeled 4arm-PEG (2 μg/mL). Tumor-specific targeting of PEGylated compounds was also examined by staining A431 (EGFR^high), and Raji (CD19^high) cell lines with 10 μg/mL of h6.3Fab×EGFR or h6.3Fab×CD19 BsAbs in PBS containing 0.05% BSA (staining buffer) at 4° C. for 30 min. The cells were washed with cold PBS for 3 times. PEG-Qdot655 (8 nM) (Invitrogen, Grand Island, N.Y.) or PEG-liposomal Texas-Red (100 nm size, 50 μM, lipid conc.) (FormuMax Scientific, Palo Alto, Calif.) in staining buffer was added to cells for 30 min at 4° C. Raji cells (CD19+) or SKBR3 cells (HER2+) were incubated with 10 μg/ml h15-2b-knob/BU12-hole, h15-2b-knob/anti-Her2-hole, h6-3-knob/BU12-hole or h6-3-knob/anti-Her2-hole BsAbs, washed and incubated with 0.25 μg/ml FITC-labeled goat anti-human IgG or 10 nM methoxy-PEG Qdot 655 at 4° C. for 30 min. After washing with cold PBS, the surface fluorescence of 10^4 viable cells was measured by FACScaliber flow cytometer (Becton Dickinson, Mountain View, Calif., USA) then analyzed with Flowjo (Tree Star Inc., San Carlos, Calif., USA). […]

The test system of a further data set is A431 (EGFR+) tumor cells. The data set can be described thus: Confocal live cell imaging of PEG-Qdot655 internalization. The format is cell-based, human. The conditions noted are these: 10 μg/mL BsAb, 16 nM PEG-Qdot655. The procedure:
The coverslips (30 mm) in POC chambers were coated with 10 μg/mL poly-L-lysine in PBS for 30 min at room temperature. The coverslips were washed twice with PBS and then 5×10^4 cells/chamber of A431 (EGFR+) tumor cells were seeded on the coverslips. A431 cells were incubated with 10 μg/mL of h6.3Fab×EGFR or h6.3Fab×CD19 BsAbs at 37° C. for 30 min containing 1 μg/mL of Hoechst 33342 and 100 nM of LysoTracker® Red DND-99 (Invitrogen Life Technologies Corporation, NY, USA). The cells were washed with culture medium for 2 times. Cell imaging was recorded with an Axiovert 200M Confocal Microscope (Carl Ziess Inc., Thornwood, N.Y.) after adding 16 nM of PEG-Qdot655 solution (Invitrogen Life Technologies Corporation, NY, USA).
To verify whether BsAb-targeted substance could be internalized by antigen-positive cancer cells, live cell imaging was performed by staining cells with lysosome tracker and BsAbs, followed by the addition and incubation of PEG-Qdot655.

In another data set the test system is A431 (EGFR+) cells. The data set can be described thus: Cytotoxicity assay of Doxisome with h6.3 BsAbs (3H-thymidine). It is filed as cell-based, human. The conditions noted are these: compared with Doxisome alone. Here is the method:
A431 (EGFR^high) and Raji (CD19^high) cells (5000 cells/well) were seeded in 96-well plates overnight. Fifteen microgram per mL of h6.3Fab×EGFR or h6.3Fab×CD19 BsAbs were added to the cells for 30 min at 37° C. and followed by graded concentrations of free doxorubicin or PEGylated liposomal doxorubicin (Doxisome®, Taiwan Liposome Company Ltd., Taipei, Taiwan) was added to the cells in triplicate at 37° C. for 4 h. The cells were subsequently washed once and incubated for an additional 48 h in fresh culture medium and then pulsed for 16 h with ^3H-thymidine (1 μCi/well). Results are expressed as percent inhibition of ^3H-thymidine incorporation into cellular DNA in comparison to untreated cells.
Next, the ability of whether h6.3Fab×CD19 and h6.3Fab×EGFR BsAbs could increase the cytotoxicity of the drug-loaded nanoparticles (NPs) to antigen-positive cancer cells was investigated. Raji (CD19+) and A431 (EGFR+) cells were incubated with h6.3Fab×CD19 and h6.3Fab×EGFR, followed by the addition of graded concentrations of Doxisome (i.e., PEGylated liposomal doxorubicin).

A further data set deals with MDA-MB-468 cells (EGFR+). The data set is described as above. It is filed as cell-based, human. The conditions noted are these: compared with Doxisome alone.
In data set [2] the test system is Ramos (CD19+) and A431 (EGFR+) tumor. The data set can be described thus: In vivo optical imaging of PEG-NIR797 probes. Also noted: species or system BALB/c nude mice. The conditions noted are these: i.v. BsAb and PEG-NIR797; 45 min, 24 and 48 hours. Here is the method: The mice were then imaged at 45 min, 24 and 48 hours after injection using an IVIS spectrum optical imaging system.

BSA, sequence (P02769 25-607): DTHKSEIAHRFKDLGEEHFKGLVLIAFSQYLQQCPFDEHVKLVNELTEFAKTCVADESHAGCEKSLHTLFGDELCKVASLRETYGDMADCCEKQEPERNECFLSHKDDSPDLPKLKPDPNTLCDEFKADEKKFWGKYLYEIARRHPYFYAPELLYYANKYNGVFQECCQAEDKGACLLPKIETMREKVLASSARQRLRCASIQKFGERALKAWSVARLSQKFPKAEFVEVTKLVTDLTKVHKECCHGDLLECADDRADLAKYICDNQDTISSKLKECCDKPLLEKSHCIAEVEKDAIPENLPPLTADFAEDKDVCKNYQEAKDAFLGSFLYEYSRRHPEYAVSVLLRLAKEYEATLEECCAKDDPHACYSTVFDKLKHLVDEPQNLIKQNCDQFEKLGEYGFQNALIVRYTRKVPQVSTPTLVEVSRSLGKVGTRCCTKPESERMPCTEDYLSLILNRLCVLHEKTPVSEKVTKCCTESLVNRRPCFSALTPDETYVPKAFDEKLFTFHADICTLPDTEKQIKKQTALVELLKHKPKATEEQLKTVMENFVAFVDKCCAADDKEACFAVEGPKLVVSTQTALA

B1: h6.3Fab×EGFR: monovalent humanized anti-PEG h6.3 Fab fused to 11F8 anti-EGFR dsFv; SEQ ID NO 9, 10, 4, 7, 6 (protein)
chain 1: DIVMTQSPDSLAVSLGERATINCKSSQSVLYSSNQMNYLAWYQQKPGQPPKLLIYWASTRESGVPDRFSGSGSGTDFTLTISSLQAEDVAVYYCLQYLSSWTFGGGTKLEIKTYSLSSTLTLSKADYEKHKLYACEVTHQGLSSPVTKSFNRGEC
chain 2: QVQLVQSGSELKKPGASVKVSCKASGYTFKNYGMNWVRQAPGQGLEWMGWINTYTGQPIYANDFKGRFVFSLDTSVSTAYLQISSLKAEDTAVYYCARDWGPYWGQGTLVTVSSASTKGPSVFPLAPSSKSTSGGTAALGCLVKDYFPEPVTVSWNSGALTSGVHTFPAVLQSSGLYSLSSVVTVPSSSLGTQTYICNVNHKPSNTKVDKRVEPKSCDK
chain 3: VDLVTVSSASTGGGSGQLGGGGS
chain 4: QVQLQESGPGLVKPSQTLSLTCTVSGGSISSGDYYWSWIRQPPGKCLEWIGYIYYSGSTDYNPSLKSRVTMSVDTSKNQFSLKVNSVTAADTAVYYCARVSIFGVGTFDYWGQGTLVTVSSGGGGSGGGGSGGGGSEIVMTQSPATLSLSPGERATLSCRASQSVSSYLAWYQQKPGQAPRLLIYDASNRATGIPARFSGSGSGTDFTLTISSLEPEDFAVYYCHQYGSTPLTFGCGTKAEIK
chain 5: TRHHHHHH
modifications: Humanized 6.3 VL-Ck; Humanized 6.3 VH-CH1; Peptide Linker; 11F8 anti-EGFR dsFv; 6xHis Tag
As for B1, in the data set with BSA, the “binding to BSA” value is listed as “not to the control BSA protein”. Further, the “binding to NH2-PEG10,000-NH2” value in data set [1] was “bound to the NH2-PEG10,000-NH2”. Besides, the “directing PEGylated substance to A431 cells” value in the data set with A431 cells (EGFR+) is on record as “capable of directing the PEGylated substance”. Besides, in the data set with A431 (EGFR+) tumor cells, the “uptake of PEG-Qdot655 into A431 cells (endocytic vesicles)” value is “displayed red fluorescence within endocytic vesicles”. The “effect on cytotoxicity of Doxisome to A431 cells” value with A431 (EGFR+) cells is recorded as “enhanced cytotoxicity of Doxisome”. Further, the “effect on cytotoxicity of Doxisome to MDA-MB-468 cells” value with MDA-MB-468 cells (EGFR+) was “enhanced cytotoxicity of Doxisome”. In data set [2], the “PEG-NIR797 signal in A431 tumors” value is recorded as “Enhanced signals of PEG-NIR797”.

(Values after patent US10188742B2, “Bi-specific antibodies and uses thereof” (ACADEMIA SINICA, priority 2014, dated 2019).)
